This data set can be described thus: soluble fraction after stress (log2 fold change); higher = more stays soluble; pooled small domains, quantitative proteomics. The note with it: stress: pH 4. The gist of the method:
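Aggregation propensity is read out as the fold change in how much of each domain remains soluble after acid stress. The custom small-domain libraries were pooled, held at pH 4 and analysed with high-throughput quantitative proteomics. On the log2 scale used, higher values mean more of the domain stayed soluble.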
Turning to “HMINLTKVGNFISIIKLQQIWTIDELLKKVDINYDELLYLLTILSDIYSKNGEYFFDFDIDAENNKILFNN”, the “soluble fraction (log2)” value is -0.3. Then “HMINVGYKFKQIRENAGLTLKQVSAMSGLSVSFISQIERGVVDPSWSSLKKISAALNIKLKDLF”, with -0.449. The same measure for “HMIPDLPAIGENLYRERKRQQLSMAELAAASGISKAMLSQIEADKVNPTIATLWKIAHALHVDLESLISGG”: -0.0815; for “HMIPDPEKVMFDGGIRLLTQAGITEGKARSILGKWKRDHETERIIAALGAAQREGAIEPVSFIERVLRN”: -0.475; for “HMIPKIIDITDLNEEVREVIEEYMKRKRVEKYHIYQDSKGQIFIISGSAIIRYDSKLNNLYYL”: -0.395.

Consider “HMIPLKTEAIPVSYGDGAAIIRSLAVAFPSRTFHWDAQTRRIIGQALDEEWQVIRSLVWQLDIP”, for which the “soluble fraction (log2)” value was -1.06. The same measure for “HMIPLSDEETILLKLLEATETHLDALIRGSQLSAAKVSVVLMGMEMKRLVKRLPGQMYQRWD”: -1.55; for “HMIPRNLEDLVRENQIGLVILKIVEIIGEDNIRDLDPETIYFINRILNELNLKKIRNNILSEALPPR”: -0.8; for “HMIPSEQYNTALTEIGLSTRAHNSLRRAGIMTLGQLIEKTRDGLPPLPGFGDKSQVEVQDLLTGLGYPI”: -1.03. With “HMIPSGISEHPISKLPLSMSIIHRLELAGIKTIGDITGENFSRLQEIPRIGKVTAKRILEAIQSYSEQLP”, the “soluble fraction (log2)” value was -0.273.

Regarding “HMIPYQDPLPKGAEESLLSKYPGFEITGVHFVNDTNFIGYKVRLERGEDREEISLDVNGKFL”, the “soluble fraction (log2)” value is -0.169. Then “HMIQADFIPQVEQRLADRGLSMSGDVMAAFLDRAGYGLRHVSNEIEKLSLYLGDRKKVTVEDVVQMVAPVR”, with -0.415; and “HMIQAGDLVFIWNPKKGDNFLIKVTPGMSQGTHFGQIKHTELMEREYGEGIVTPKGEVYYLLRPTLAGYTR”, with -1.3. Then “HMIQIGEQIRYYRTKIGISQEALALMADINPAYIGQIERGIKSPTVNTIKKIANAMGINLHTLFT”, with -0.434. Then “HMIQKTHPALEIVKEYFSSQAASEFEAERFFNYYTSNGWLIGGKTKMKDWQAAARNWILNTAK”, with -0.255; and “HMIQNEITLMLQVNGKLRGQIQVPSDASKEQIEQLAKDSEAAQKALAGASPKKIIVVPGRLVNIV”, with 0.183; and “HMIQQFTYAFAKDKGVVVLPGRDVLTLGMRAGADPLVLLEARRALGSSFELEPLDRDTYERTLADVFTADA”, with -1.41. Regarding “HMIQRLNVNTEVLSTYIRNSNTPIEYLRQKLPNIDKFLKGELEPTFNQVYALSKLINIPTGLLLLKEPIS”, the “soluble fraction (log2)” value was 0.359. Then “HMIQSEQIPFSKFLKEVDSGRVVQVEIQGNNINGVLSDGSKFKTYSPNYPELVGKLSDKGVSIVASPV”, with 0.0829; and “HMIQTKNVTFTINEKTKIANIPLKSLKILSQEDNRITLSYEKNSLKIDEIISYFSDKNINILDITTD”, with -1.05. “HMIQYRKILELHFKDISQRTISTSVGSSRNTVSDVIKRSEQLGLERLTDNMNNRWLEEFLFPEKQ”: the “soluble fraction (log2)” value was -0.177.

Take “HMIRALVPGQTLHGEIVGRNGGEVQVRLAEDMILNARVDQNIYLELGKDLTFEVKNNGATLTLSPL”: the “soluble fraction (log2)” value was -0.552.

Consider “HMIRDTTMYPVSVNGKKRYEWTVSKSISDDELKQQVLELEEIKKWIEGHEIKKLIFVPGRAINIV”, for which the “soluble fraction (log2)” value is -0.743. Take “HMIRDVDYNTFVSMVQEGKVGQVEIQEQNNRILFTDKDERTVYKTAMVPDSDLISRLLEAGVSTS”: the “soluble fraction (log2)” value is -0.737. Take “HMIRTGEVVTGKVINVKEDQIILNIGFKSDGIITRNEYTNDNSLDLRTVVHEGDEIEAKVLKVNDGEGQVV”: the “soluble fraction (log2)” value was found to be 0.12. Take “HMIRVGRPQYKRGEFVSFDFDNGRKKTEMYGRVDVIDSYGTFGQGREVSYDIRASDGILYKHIPESSVYGF”: the “soluble fraction (log2)” value stood at 0.28.

Turning to “HMIRVVSIEDQPWFVAADVLKSLGMPTDKGVGKYLLALGSDERMLTTHGQIGGKGMAVTTIISESGLY”, the “soluble fraction (log2)” value was -0.703.

With “HMISDAEWKIMNVLWEEQPRTMMQITKELQEETGWTKHTVMTYLKRMESKKIIHYVEGEKAKLYYS”, the “soluble fraction (log2)” value was -0.136. Then “HMISDDLYQAVLDFTLTQDTISISRLQQNFNLGWPRARQLYDQLMQNGIIEPPDEANSAKGAVVIANKRG”, with -1.06; and “HMISIKEAVFPFSRFPGVDTLLGPEMKSTGEVMGLADNFGHAYAKSQIASGSKLPESGTLFVSVKNSD”, with 0.0851; and “HMISKRFQIDEENAHKRIDIFLSHEFDSISRGIVQELIVKGEVLVNDKVTKRNYKLKTGDLVDITINL”, with 0.247. Then “HMITDQQKEQLSSLLKQAEAALAKAAANDQVLAAHKDEAVELLKSTSATSADAADLINELTELLKPYQ”, with -0.605; and “HMITEDQVIARIGLLSPAEKSLLKDKLERFRRLTLSEQQHLREFHSALDNHDKRTDLLNVLRKYNDWVNQL”, with -0.736; and “HMITEQEFQRVAAYVKNKAGINLNEKKVLVQGRLDSYMQRKGYSSYDEFMDRVERFPTGPEAEDLMNALTT”, with 0.0246. Then “HMITFRINQQSQVGLRLDKFIVQQMPDYSRTRIQSWIKTKNILVNGEGKKSGYALEFDDLVEVTIPE”, with 0.0398; and “HMITGREMDVLEALWSSEKPLVASDIPKMKPSLSISSVQLALRNLVKKKLVEVADIVYSGTVLSRSYRP”, with -0.477; and “HMITIDNYFNKEKELDFSSFPEALRKGHGFVSKATAHGSSWVSYHSSDAIKKTIDIYLSKLNEYLSNNAKA”, with 0.0989. As for “HMITLYDLLGVSKTASSQEIKTAFKKKALQYHPDKNDGNPDKEEIFKRINMAYQVLGQPQSRANYDFSITP”, the “soluble fraction (log2)” value is 0.0886. Then “HMITNMIIIMKPNASEEAIEKVKHLIESKGLQAHLSKGDEVTIVGVVGDKTRLHDSNIEISEGVDKIVNVT”, with -0.0219; and “HMITPAGVPPALLPVFDQFTLPDGTLRRGAVAAALRALYGPDAPQSGKRYQMEYDRVMAWHSQYFTSLH”, with -0.42; and “HMITPKQTAETLGIATSTLRRWASEFEPFLSLRTGVKRTYTTDDITTLKRVKDLFAQGLKTEQVREAL”, with not below 0.43.

Consider “HMITPNQAAVTLKVSTSTLRRWSSDFEPFLSPRKGVKRLYTIEDIATLKRIQGLYKQGMNTAQVQA”, for which the “soluble fraction (log2)” value is -0.0332.

For the sequence “HMITQQEFQQKLEALLSRAEAESFHIKKEEAESFFSGDELTGEQMKLVFDYLLSKKIIVEGYLK”, the “soluble fraction (log2)” value amounted to 0.0629. The same measure for “HMITTEEVLNRIRKKVDHPATIRELQKALSIADDDRHRFRRRIRTLVASGALVRIRGNRYGLPSK”: 0.0429; for “HMITTWAGKATTDVYGRVDANPKADAVLVIKTGWTVQVVGSKTAPDGGTWYKLIYNGKTMYANSKFIVK”: 0.00106. For “HMITVEAPMPGKVLSVNVKAGDKVEAGDVLLILEAMKMQNEIMAPEDGTVSDVRVSAGDTVATGDVMVV”, the “soluble fraction (log2)” value is -0.33. Then “HMIVIMAKESSPAELEGVKNRIESHPGLRPQVFDGVERIVVGVLGSIPPDLKDEIELLPGVIEVVPISK”, with -0.211; and “HMIVVLKHGVTEQQMRNLIAWFKDQGVDVHVSRGIYQTVLGLVGDTSDIDVDLLRMLDIVDAVKRIT”, with -0.785.

For “HMIVVMAADSSREDLDLVQGRIEARGLRAQISQGVERIVIGVLGSLPPDLKDEMELLPGVREVLVIS”, the “soluble fraction (log2)” value was -1.19.

Consider “HMIYGNGVTDLKDLANGATIIIPADDSNETRALFLLQQEGLIKLPDDADAAKGVSTLDIVDGGGWVTSM”, for which the “soluble fraction (log2)” value is -0.381.

Source of the values: the domain aggregation screens of Martell et al. (2025).
